Test results published in PMC6200312, “A Single Tim Translocase in the Mitosomes of Giardia intestinalis Illustrates Convergence of Protein Import Machines in Anaerobic Eukaryotes” (Genome Biology and Evolution, 2018).

B1: Giardia intestinalis Tim17 protein (GiTim17), in vivo in Giardia (natural protein, UniProt D3KGG5 1-180, looked up)
chain: MLRLWQEYVQEDDVLACLSVLDEDCQRAVQVIERLDVEGGTPEMQTHERVCTSFSHGLIRTALRRFPLALSKNLGRVQSMLNAFNHALQETSTESFSHAISSSCGSLVSSLCNNPSAGAAMGALPNLRKSPGAALSALLMGPTIAHLVGSVYSLGLNAYHICKLELRDLRLHRAEMDKKA
notes: Tim17 family protein of Giardia intestinalis, GL50803_10452, a protein of 180 amino acids, predicted mass 19.4 kDa; also called GL50803_10452

How the values were obtained:
[1] = target: GiTim17 synthesized in vitro (PURExpress) in lecithin liposomes (Giardia intestinalis); test: native gel or EMSA; 35S-labelled GiTim17 translated in vitro with lecithin liposomes; pellet washed with 2 M urea in 50 mM sodium phosphate pH 8; Blue Native PAGE with 2% digitonin, 4-16% Bis-Tris gel
[2] = target: the molecule itself; test: non-reducing SDS-PAGE; GiTim17 in vivo in Giardia; ~40 kDa complex on nonreducing SDS-PAGE, no reducing agent

Row | Molecule | stoichiometry N [1] | stoichiometry N [2]
1 | GiTim17 synthesized in vitro (PURExpress) in lecithin liposomes (natural protein) | 2 | –
2 | B1 | – | ~2
